These results are taken from US20250074980A1 (BRIGHAM AND WOMEN S HOSPITAL, published 2025).

The target in assay [1] is T1, CEACAM5 on transfected HeLa cells (human, UniProt P06731 35-685).
T1 construct: whole, on cells; also called HeLa-CEACAM5; HeLa C5
T1 sequence (looked up): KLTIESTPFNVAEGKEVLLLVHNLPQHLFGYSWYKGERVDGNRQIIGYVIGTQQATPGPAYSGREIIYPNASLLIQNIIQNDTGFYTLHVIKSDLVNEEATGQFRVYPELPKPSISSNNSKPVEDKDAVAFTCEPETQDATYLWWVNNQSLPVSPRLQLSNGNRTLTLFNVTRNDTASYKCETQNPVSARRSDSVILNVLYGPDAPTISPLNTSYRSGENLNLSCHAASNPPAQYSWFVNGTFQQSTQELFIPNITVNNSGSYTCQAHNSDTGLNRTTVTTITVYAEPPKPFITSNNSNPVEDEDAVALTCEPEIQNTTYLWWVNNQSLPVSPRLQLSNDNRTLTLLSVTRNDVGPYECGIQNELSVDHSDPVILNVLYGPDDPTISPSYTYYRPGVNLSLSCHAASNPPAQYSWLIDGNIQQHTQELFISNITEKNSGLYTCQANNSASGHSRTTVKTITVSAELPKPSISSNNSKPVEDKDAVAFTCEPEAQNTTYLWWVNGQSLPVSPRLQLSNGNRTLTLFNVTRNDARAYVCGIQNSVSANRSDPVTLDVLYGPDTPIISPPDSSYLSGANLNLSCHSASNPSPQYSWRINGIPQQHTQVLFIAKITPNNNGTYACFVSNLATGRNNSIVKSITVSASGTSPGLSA
Put plainly: flow cytometry titration, HeLa-CEACAM5 transfectants, anti-human IgG4 FITC. The method, then:
(§1) FIGS. 31A and 31B show flow cytometry analyses of stable HeLa CEACAM1 (HeLa C1) transfectant, stable HeLa CEACAM3 transfectant (HeLa C3), stable HeLa CEACAM5 transfectant (HeLa C5), stable HeLa CEACAM6 transfectant (HeLa C6), and stable HeLa CEACAM8 transfectant (HeLa C8). FIG. 31A: 5×10\hat{ }4 indicated HeLa transfectants were washed with staining buffer and CP08H03/Vκ8 S29A (labeled “CP08”, left) or CEACAM1 antibody CM-24 was incubated at room temperature for 30 min, washed twice with staining buffer, and stained for anti-human IgG4 Fluorescein isothiocyanate (FITC) conjugated secondary antibody at room temperature for 20 min. Fluorescence intensities were determined by flow cytometry. Live cells were determined by 4′,6-diamidino-2-phenylindole (DAPI) staining as shown on the y-axis. Staining with the respective CEACAM1 antibody is shown on the x-axis. […]
(§2) The cervical adenocarcinoma cell line HeLa (ATCC No CCL-2) as well as transfected cell lines HeLaCEACAM1, HeLaCEACAM3, HeLaCEACAM5, HeLaCEACAM6 and HeLaCEACAM8 used for flow cytometry experiments were cultured at 37° C., 5.0% CO₂ in Dulbecco's modified Eagle's medium supplemented with 10% fetal bovine serum, penicillin (100 U/ml) and dihydrostreptomycin (100 μg/ml). […] Data were acquired with a Cytoflex flow cytometer (Invitrogen) and analyzed with FlowJo software (TreeStar, V7.6.5 for Windows).

Assay [2] addresses T2, CEACAM3 on transfected HeLa cells (human, UniProt P40198 35-252).
T2 construct: whole, on cells; also called HeLa-CEACAM3; HeLa C3
T2 sequence (looked up): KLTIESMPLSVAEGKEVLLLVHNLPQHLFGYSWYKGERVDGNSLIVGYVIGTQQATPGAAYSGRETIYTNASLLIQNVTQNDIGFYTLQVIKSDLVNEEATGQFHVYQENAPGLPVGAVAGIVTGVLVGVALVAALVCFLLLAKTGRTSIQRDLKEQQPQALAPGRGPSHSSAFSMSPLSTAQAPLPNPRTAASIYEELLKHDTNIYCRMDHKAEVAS
Put plainly: flow cytometry titration, HeLa-CEACAM3 transfectants, anti-human IgG4 FITC. The procedure: as §1, §2
(In general: In flow cytometry, cells or beads pass a laser one at a time.)

Assay [3] has as its target T3, CEACAM6 on transfected HeLa cells (human, UniProt P40199 35-320).
T3 construct: whole, on cells; also called HeLa-CEACAM6; HeLa C6
T3 sequence (looked up): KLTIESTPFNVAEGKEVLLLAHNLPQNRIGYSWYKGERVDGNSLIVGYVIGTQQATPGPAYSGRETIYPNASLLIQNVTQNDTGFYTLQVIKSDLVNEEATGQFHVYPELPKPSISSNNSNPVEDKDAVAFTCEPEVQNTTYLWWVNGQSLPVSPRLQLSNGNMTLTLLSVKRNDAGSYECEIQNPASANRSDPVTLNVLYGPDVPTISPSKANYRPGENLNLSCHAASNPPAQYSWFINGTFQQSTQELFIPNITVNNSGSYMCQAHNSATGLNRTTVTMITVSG
In words: flow cytometry titration, HeLa-CEACAM6 transfectants, anti-human IgG4 FITC. The method, then:
as §1, §2

Assay [4] has as its target T3, CEACAM6 on transfected HeLa cells. In words: flow cytometry, transfected HeLa.
Assay [5] deals with T4, CEACAM1 on transfected HeLa cells (human, UniProt P13688 35-526).
T4 construct: also called HeLa-CEACAM1; HeLa C1
T4 sequence: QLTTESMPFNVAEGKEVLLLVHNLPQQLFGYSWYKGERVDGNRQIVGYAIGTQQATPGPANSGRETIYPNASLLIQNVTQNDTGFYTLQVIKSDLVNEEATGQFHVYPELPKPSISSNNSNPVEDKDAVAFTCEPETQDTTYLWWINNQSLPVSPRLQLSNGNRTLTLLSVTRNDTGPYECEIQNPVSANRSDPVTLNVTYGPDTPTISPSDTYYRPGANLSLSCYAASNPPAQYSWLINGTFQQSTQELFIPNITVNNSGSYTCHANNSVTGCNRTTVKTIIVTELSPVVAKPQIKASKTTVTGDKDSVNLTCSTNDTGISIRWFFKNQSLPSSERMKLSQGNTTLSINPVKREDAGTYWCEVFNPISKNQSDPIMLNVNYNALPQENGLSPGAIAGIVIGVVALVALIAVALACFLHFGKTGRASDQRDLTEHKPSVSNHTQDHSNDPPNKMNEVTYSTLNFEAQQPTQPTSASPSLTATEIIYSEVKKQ
Put plainly: flow cytometry, transfected HeLa.

Assay [6] has as its target T1, CEACAM5 on transfected HeLa cells. In words: flow cytometry, transfected HeLa.

B1: CP08H03/Vκ8 S29A (antibody, IgG4, V domains shown)
VH: EVQLLESGGGLVQPGGSLRLSCAASGFIFSSHGMSWVRQAPGKGLEWVATISSGGTYTYYPDSVKGRFTISRDNSKNTLYLQMNSLKAEDTAMYYCARHDFDYFPYWFAHWGQGTLVTVSS
VL: EIVLTQSPATLSLSPGERATLSCRANSAVSYMYWYQQKPGQAPRPWIYLTSNRATGVPARFSGSGSGTDYTLTISSLEPEDFAVYYCQQWSSNPPTFGQGTKLEIK
notes: IgG4 (S241P), kappa; also called CP08_H03/Parent VL; CP08_H03/Parental
For the molecule B1, the binding result in assay [1], in assay [2] and in assay [3] was “no binding (tested: 100 ug/ml)” throughout.

B2: chimeric antibody VH0/Vκ0 (antibody, IgG4, V domains shown)
VH: EVQLVESGGDLVKPGGSLKLACAASGFIFSSHGMSWVRQTPDKRLEWVATISSGGTYTYYPDSVKGRFTISRDNDKNTLYLQMNSLKSEDTAMYYCARHDFDYDAAWFAYWGQGTLVTVSS
VL: QIVLTQSPALMSASPGVKVTMTCSANSSVSYMYWYRQKPRSSPKPWIYLTSNLASGVPARFSGSGSGTSYSLTISSMEAEDAATYYCQQWSSNPPTFGSGTKLEIK
notes: IgG4 (S241P), kappa; also called VH0/Vκ0 (control); Chimeric VH0/Vκ0
For the molecule B2, the “relative amount of cells bound” value in assay [4] turned out to be 0.3; in assay [5], 78; in assay [6], 8.81.
